Reference: US20140017242A1, “ANTI-BRADYKININ B2 RECEPTOR (BKB2R) MONOCLONAL ANTIBODY” (Diamedica, Inc., priority 2010, published 2014)
Where a chain is given by its changes, count along the chain named. Where no end group is shown, it is not given here.

T1: human BKB2R-derived epitope peptide (SEQ ID NO:73), PEG-biotin (human, also: PEG-biotin, site not given here)
T1 construct: also called immunogenic human BKB2R peptide fragment
T1 peptide: KEYSDEGHNVTAC

B1: humanized anti-BKB2R antibody H37/L37 (antibody, human IgG2, kappa, V domains shown)
VH: EVQLVESGGGLVQPGGSLRLSCAASGFTFSDYWMDWVRQAPGKGLEWVGEIRLKSDNYATHYAASVKGRFTISRDDSKNSLYLQMNSLKTEDTAVYYCTRDYYAMEYWGQGTTVTVSS
VL: DIVMTQTPLSLSVTPGQPASISCKSSQTIVHSNGKTYLYWYLQKPGQSPQLLIYKVSSRFSGVPDRFSGSGSGTDFTLKISRVEAEDVGVYYCFQASHVPYTFGQGTKLEIKR
B2: humanized anti-BKB2R antibody H38/L38 (antibody, human IgG2, kappa, V domains shown)
VH: B1 VH with V5L, R19K, A24V, D35S, G49S, A64D, S80T, K89R, T90A, T113L
VL: B1 VL with S12P, P15S, Q17E, K24R, Y39D, S58N, F60A, Q105G, L109V
B3: humanized anti-BKB2R antibody H38/L39 (antibody, human IgG2, kappa, V domains shown)
VH: B1 VH with V5L, R19K, A24V, D35S, G49S, A64D, S80T, K89R, T90A, T113L
VL: B1 VL with I2V, Y39E, S58N
B4: humanized anti-BKB2R antibody H39/L38 (antibody, human IgG2, kappa, V domains shown)
VH: B1 VH with Q3K, A24V, G49A, N79S, S80R
VL: B1 VL with S12P, P15S, Q17E, K24R, Y39D, S58N, F60A, Q105G, L109V
B5: humanized anti-BKB2R antibody H39/L39 (antibody, human IgG2, kappa, V domains shown)
VH: B1 VH with Q3K, A24V, G49A, N79S, S80R
VL: B1 VL with I2V, Y39E, S58N
B6: humanized anti-BKB2R antibody H37/L39 (antibody, human IgG2, kappa, V domains shown)
VH: B1 VH
VL: B1 VL with I2V, Y39E, S58N
B7: humanized anti-BKB2R antibody H37/L38 (antibody, human IgG2, kappa, V domains shown)
VH: B1 VH
VL: B1 VL with S12P, P15S, Q17E, K24R, Y39D, S58N, F60A, Q105G, L109V
B8: humanized anti-BKB2R antibody H38/L37 (antibody, human IgG2, kappa, V domains shown)
VH: B1 VH with V5L, R19K, A24V, D35S, G49S, A64D, S80T, K89R, T90A, T113L
VL: B1 VL
B9: humanized anti-BKB2R antibody H39/L37 (antibody, human IgG2, kappa, V domains shown)
VH: B1 VH with Q3K, A24V, G49A, N79S, S80R
VL: B1 VL
B10: L1/HC: humanized light chain L1 (SEQ ID NO:8) with HC, the mouse original 5F12G1 VH (antibody)
heavy: EVKLEESGGGLVQPGGSMKLSCVVSGFTFSDYWMSWVRHSPEMGLEWVAEIRLKSDNYATHYAESVKGRFTISRDDSKSRLYLQINSLRGEDTGIYYCTRDYYAMEYWGQGTSVTVSS
light: DIVMTQSPLSLPVTPGEPASISCRSSQTIVHSNGKTYLEWYLQKPGQSPQLLIYKVSNRFSGVPDRFSGSGSGTDFTLKISRVEAEDVGVYYCFQASHVPYTFGQGTKLEIKRTVAAPSVFIFPPSDEQLKSGTASVVCLLNNFYPREAKVQWKVDNALQSGNSQESVTEQDSKDSTYSLSSTLTLSKADYEKHKVYACEVTHQGLSSPVTKSFNRGEC
modifications: left off: a dimerising Fc or GST
B11: L2/HC: humanized light chain L2 (SEQ ID NO:9) with HC, the mouse original 5F12G1 VH (antibody)
heavy: B10 heavy
light: B10 light with D75E
modifications: left off: a dimerising Fc or GST
B12: L1/H1: humanized anti-BKB2R mAb, light chain L1 (SEQ ID NO:8), heavy chain H1 (SEQ ID NO:3), human IgG2/kappa (antibody, V domains shown)
VH: B1 VH with D35S, G49A, A64E, D76N, S77A, K89R, T90A, T113L
VL: DIVMTQSPLSLPVTPGEPASISCRSSQTIVHSNGKTYLEWYLQKPGQSPQLLIYKVSNRFSGVPDRFSGSGSGTDFTLKISRVEAEDVGVYYCFQASHVPYTFGQGTKLEIK
modifications: Humanized H1 Heavy Chain Variable Region VH; Humanized L1 Light Chain Variable Region VL
B13: L1/H2: humanized anti-BKB2R mAb, light chain L1 (SEQ ID NO:8), heavy chain H2 (SEQ ID NO:4) (antibody, V domains shown)
VH: B1 VH with A23V, D35S, G49A, A64E, S77A, K89R, T90A, T113L
VL: B12 VL
modifications: Humanized H2 Heavy Chain Variable Region VH; Humanized L1 Light Chain Variable Region VL
B14: L2/H1: humanized anti-BKB2R mAb, light chain L2 (SEQ ID NO:9), heavy chain H1 (SEQ ID NO:3) (antibody, V domains shown)
VH: B1 VH with D35S, G49A, A64E, D76N, S77A, K89R, T90A, T113L
VL: B12 VL with D75E
modifications: Humanized H1 Heavy Chain Variable Region VH; Humanized L2 Light Chain Variable Region VL
B15: H39/L37: humanized anti-BKB2R mAb, heavy chain H39 (SEQ ID NO:7), light chain L37 (SEQ ID NO:10) (antibody, V domains shown)
VH: B1 VH with Q3K, A24V, G49A, N79S, S80R
VL: B12 VL with S7T, P12S, E17Q, R24K, E39Y, N58S
modifications: Humanized H39 Heavy Chain Variable Region VH; Humanized L37 Light Chain Variable Region VL
B16: H38/L38: humanized anti-BKB2R mAb, heavy chain H38 (SEQ ID NO:6), light chain L38 (SEQ ID NO:11) (antibody, V domains shown)
VH: B1 VH with V5L, R19K, A24V, D35S, G49S, A64D, S80T, K89R, T90A, T113L
VL: B12 VL with S7T, P15S, E39D, F60A, Q105G, L109V
modifications: Humanized H38 Heavy Chain Variable Region VH; Humanized L38 Light Chain Variable Region VL

Target: T1, human BKB2R-derived epitope peptide …
Assay: BLI (Octet), peptide-PEG-biotin on streptavidin sensor, antibody 500 nM
Conditions: not given
Description: (§1) For the Octet study, antibodies were analyzed by kinetic titration of the antibodies. Antibodies were prepared in kinetic buffer (0.001 M phosphate buffered saline (NaCl 0.0138 M; KCl-0.00027 M); pH 7.4, at 25° C., 0.1 mg/ml BSA, 0.002% Tween and 0.005% Sodium Azide) followed by 1:2 serial dilutions.
(§2) Sensor Prep: Streptavidin biosensors (FortéBio Inc, Menlo Park, Calif.) were coated by incubation in a solution containing a peptide ([…]-PEG-biotin) (Biosyn, Lewisville, Tex.) at 50 μg/ml (300 seconds/1000 rpm shaking). 96 well half-volume plates were used for testing. 90 μl of sample was plated per well. Sensors were allowed to equilibrate to baseline in kinetic buffer (60 seconds/1000 rpm). The sensors were then placed into the various antibody dilutions to allow binding (association) to the probe for 500 seconds/1000 rpm, and measurements were taken. The sensors were then moved into kinetic buffer without antibody for dissociation (500 seconds/1000 rpm), and measurements were taken. Octet system software calculated kinetic constants for on rate/off rate/affinity.
For test humanized monoclonal antibodies, the highest concentration used was 500 nM followed by 1:2 dilutions. Each concentration was tested twice. The HC and LC represented the mouse original 5F12G1 VH and VL sequences.

Kd | Max Response | koff | kon | Molecule
758 nM | 0.12 | 1.18 s⁻¹ | 1.55e+06 M⁻¹ s⁻¹ | B1
2.49 nM | 0.132 | 0.00763 s⁻¹ | 3.06e+06 M⁻¹ s⁻¹ | B2
93.2 nM | 0.0681 | 106 s⁻¹ | 1.14e+09 M⁻¹ s⁻¹ | B3
761 nM | 0.143 | 4.9 s⁻¹ | 6.44e+06 M⁻¹ s⁻¹ | B4
1730 nM | 0.0915 | 1.26 s⁻¹ | 729000 M⁻¹ s⁻¹ | B5
1230 nM | 0.121 | 1.98 s⁻¹ | 1.11e+06 M⁻¹ s⁻¹ | B6
220 nM | 0.173 | 2.08 s⁻¹ | 9.47e+06 M⁻¹ s⁻¹ | B7
3110 nM | 0.577 | 29.4 s⁻¹ | 9.44e+06 M⁻¹ s⁻¹ | B8
23.4 nM | 0.119 | 0.0288 s⁻¹ | 1.23e+06 M⁻¹ s⁻¹ | B9

target: T2, human BKB2R-derived epitope peptide, SE ID NO:73 (Homo sapiens, UniProt P30411); assay: ForteBio Octet binding kinetics to the BKB2R epitope peptide; conditions: Conc. 250 nM
T2 construct: purchased Biosyn, Lewisville, Tex
Description: Proteins corresponding to all combinations of humanized or chimeric (5F12G1 VH and VL on human IgG2 backbone) antibodies were tested for binding to the human BKB2R-derived epitope peptide, SE ID NO:73.
A ForteBio (Menlo Park, Calif., USA) Octet® platform was used to analyze the binding affinities and binding characteristics of the humanized monoclonal antibodies to the peptide epitope (SEQ ID NO:73) and compared to the original mouse monoclonal 5F12G1. This platform employed label-free technology for measuring biomolecular interactions by optical analysis of the interference pattern of white light reflected from two surfaces: a layer of immobilized protein on the biosensor tip, and an internal reference layer. Any change in the number of molecules bound to the biosensor tip caused a shift in the interference pattern that was measured in real-time. Binding specificity, and rates of association and dissociation were monitored.
as §1, §2
[…] […] Each concentration was tested twice. The HC and LC represented the mouse original 5F12G1 VH and VL sequences.

kdis | kon | Molecule
0.728 s⁻¹ | 239000 M⁻¹ s⁻¹ | B10
0.732 s⁻¹ | 2.17e+06 M⁻¹ s⁻¹ | B11
0.719 s⁻¹ | 350000 M⁻¹ s⁻¹ | B13
0.00438 s⁻¹ | 216000 M⁻¹ s⁻¹ | B14

Molecule | kdis | kon
B12 | 0.701 s⁻¹ | 1.59e+06 M⁻¹ s⁻¹

same assay, conditions: Conc. 500 nM

kdis | kon | Molecule
2.16 s⁻¹ | 543000 M⁻¹ s⁻¹ | B10
0.655 s⁻¹ | 145000 M⁻¹ s⁻¹ | B11
0.976 s⁻¹ | 2.43e+06 M⁻¹ s⁻¹ | B13
0.00507 s⁻¹ | 1.21e+06 M⁻¹ s⁻¹ | B14

Molecule | kdis | kon
B12 | 0.942 s⁻¹ | 404000 M⁻¹ s⁻¹
B15 | 0.0288 s⁻¹ | 1.23e+06 M⁻¹ s⁻¹
B16 | 0.00763 s⁻¹ | 3.06e+06 M⁻¹ s⁻¹

same assay, conditions: Octet, epitope peptide

Molecule | binding compared with the original mouse monoclonal antibody
B15 | stronger binding (lower KD)
B16 | stronger binding (lower KD)
